Data: patent US20100135991A1 (published 2010)

T1: human ORP150-3x Flag with deletion of amino acids 673-752 (human, UniProt Q9Y4L1 33-999)
T1 construct: Deletion mutant made by overlapping PCR, expressed in Flp-In CHO cells
T1 sequence: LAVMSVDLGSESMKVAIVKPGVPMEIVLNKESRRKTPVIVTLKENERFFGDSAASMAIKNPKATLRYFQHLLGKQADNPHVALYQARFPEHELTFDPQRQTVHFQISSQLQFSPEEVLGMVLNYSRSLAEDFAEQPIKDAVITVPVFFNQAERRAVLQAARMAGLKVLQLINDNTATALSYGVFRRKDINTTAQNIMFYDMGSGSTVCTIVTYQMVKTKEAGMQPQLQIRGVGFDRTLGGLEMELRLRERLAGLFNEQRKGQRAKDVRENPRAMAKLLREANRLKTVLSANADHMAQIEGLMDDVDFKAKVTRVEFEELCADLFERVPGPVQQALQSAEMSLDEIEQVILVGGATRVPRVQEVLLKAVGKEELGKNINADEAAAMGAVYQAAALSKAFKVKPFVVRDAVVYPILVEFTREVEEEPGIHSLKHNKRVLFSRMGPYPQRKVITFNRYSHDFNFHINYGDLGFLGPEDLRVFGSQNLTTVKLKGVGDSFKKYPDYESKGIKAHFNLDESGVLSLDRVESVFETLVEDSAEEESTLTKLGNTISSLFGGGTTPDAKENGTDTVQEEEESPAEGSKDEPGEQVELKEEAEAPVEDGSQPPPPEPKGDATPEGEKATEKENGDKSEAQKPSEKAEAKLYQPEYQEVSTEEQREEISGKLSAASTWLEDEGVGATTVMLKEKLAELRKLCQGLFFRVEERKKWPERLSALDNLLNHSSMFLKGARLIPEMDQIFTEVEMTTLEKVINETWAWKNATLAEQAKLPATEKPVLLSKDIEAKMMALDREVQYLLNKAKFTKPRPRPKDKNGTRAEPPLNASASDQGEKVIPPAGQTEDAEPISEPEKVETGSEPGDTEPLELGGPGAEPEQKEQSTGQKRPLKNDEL

T2: human ORP150-3x Flag with deletion of amino acids 723-732 (human, UniProt Q9Y4L1 33-999)
T2 sequence: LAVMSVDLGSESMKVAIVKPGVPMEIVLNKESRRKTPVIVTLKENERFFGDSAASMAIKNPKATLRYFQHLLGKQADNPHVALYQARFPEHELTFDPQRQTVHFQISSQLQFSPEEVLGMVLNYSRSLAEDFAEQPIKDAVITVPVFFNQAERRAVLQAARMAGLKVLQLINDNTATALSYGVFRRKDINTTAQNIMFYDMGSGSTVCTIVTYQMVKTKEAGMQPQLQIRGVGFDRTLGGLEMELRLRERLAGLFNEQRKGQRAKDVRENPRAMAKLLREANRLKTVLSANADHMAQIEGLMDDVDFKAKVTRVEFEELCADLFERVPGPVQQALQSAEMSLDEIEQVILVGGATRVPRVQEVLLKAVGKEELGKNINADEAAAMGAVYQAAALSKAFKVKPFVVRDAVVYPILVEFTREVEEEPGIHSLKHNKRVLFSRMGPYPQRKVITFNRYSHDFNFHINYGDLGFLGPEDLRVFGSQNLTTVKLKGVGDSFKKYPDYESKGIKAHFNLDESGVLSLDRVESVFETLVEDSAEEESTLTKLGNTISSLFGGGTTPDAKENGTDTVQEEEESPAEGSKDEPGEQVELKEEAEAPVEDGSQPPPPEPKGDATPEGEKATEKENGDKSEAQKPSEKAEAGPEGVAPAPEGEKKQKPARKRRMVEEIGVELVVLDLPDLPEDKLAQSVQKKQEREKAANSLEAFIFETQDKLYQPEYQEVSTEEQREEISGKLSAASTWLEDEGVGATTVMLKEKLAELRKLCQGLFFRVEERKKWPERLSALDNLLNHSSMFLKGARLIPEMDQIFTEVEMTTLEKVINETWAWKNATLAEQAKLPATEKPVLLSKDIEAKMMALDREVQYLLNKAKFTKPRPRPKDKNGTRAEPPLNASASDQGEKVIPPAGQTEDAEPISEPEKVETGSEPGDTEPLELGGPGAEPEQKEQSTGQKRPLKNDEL

T3: zinc-binding alcohol dehydrogenase domain containing 2 (UniProt Q8N4Q0 1-377, limits assumed)
T3 construct: also called unrelated protein
T3 sequence (looked up): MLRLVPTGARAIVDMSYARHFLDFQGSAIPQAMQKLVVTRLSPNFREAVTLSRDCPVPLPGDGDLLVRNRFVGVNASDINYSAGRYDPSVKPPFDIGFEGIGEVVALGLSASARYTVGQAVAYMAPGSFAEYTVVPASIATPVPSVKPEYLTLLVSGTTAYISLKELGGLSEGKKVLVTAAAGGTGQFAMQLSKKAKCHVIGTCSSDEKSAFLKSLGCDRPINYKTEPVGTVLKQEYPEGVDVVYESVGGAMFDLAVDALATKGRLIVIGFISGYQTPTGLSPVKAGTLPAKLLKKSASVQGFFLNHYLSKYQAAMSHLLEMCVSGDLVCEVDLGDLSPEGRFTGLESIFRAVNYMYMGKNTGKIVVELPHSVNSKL

B1: monoclonal antibody 5F4 (antibody, mouse IgM, V domains shown)
VH: QIQLVQSGPELKKPGETVKISCKASDYTFTDYSMHWVKQAPGKGLKWMGWINTETGEPTYADDFKGRFAFPLETSASTAYLQINNLKNEDTATYFCARNHGYNLAYWGQGTLVTVSA
VL: DIVMTQSQKFMSTSVGDRVSLTCKSSQNVRTAVTWYQQKPGQSPKALIYLASNRHTGVPDRFTGSGSGTDFTLTISNVQSEDLADYFCLQHWNYPLTFGGGTKLEIK
notes: Mouse IgM, kappa, from a hybridoma; also called m5F4; murine 5F4
B2: antibody 9A6.2 (antibody, mouse IgM, V domains shown)
VH: EVKLVESGGGLVKPGGSLKLSCAASGFTFSSYAMSWVRQTPEKRLEWVASISSGGSTYYPDSVKGRFTISRDNARNILYLQMSSLRSEDTAMYYCARGRGYYAYYFDYWGQGTTLTVSS
VL: ETTVTQSPASLSVATGEKVTIRCITSTDIDDDMNWYQQKPGEPPKLLISEGNTLRPGVPSRFSSSGYGTDFVFTIENTLSEDVADYYCLQSDNMPFTFGSGTKLEIK
notes: Mouse IgM, kappa

Key:
[1] = molecular target: T1, human ORP150-3x Flag with deletion of …; experiment: anti-FLAG capture ELISA and Western blot
Protocol: (§1) Binding of 5F4 to the ORP150 wild type or mutant proteins generated from the supernatant of the transfected cells were tested using ELISA assay by coating the surface with anti-FLAG antibody, allowing binding of the ORP150 proteins in the supernatant to the anti-FLAG antibody, and detecting binding of 5F4 to the ORP150 proteins.
(§2) Binding of 5F4 to the wild type or the mutant ORP150 proteins from the supernatant and cell lysates was also tested using Western blot assays by immunoprecipitation the ORP150 proteins from the supernatant or cell lysates using anti-FLAG antibody, and detecting binding of 5F4 to the ORP150 proteins on the Western blot. The anti-Flag M2 affinity gel (Sigma, Cat. No. A2220) was used to immuno-precipitate the recombinant human ORP150 from the supernatant and cell lysates of the transfected cells. The IP products were subjected to SDS-PAGE and then transferred onto nitrocellulose membrane for Western blotting. […] The blotting signal was detected with Immobilon Western-Chemiluminescent HRP Substrate kits (Millipore, Cat. No. WBKLS0500)
(§3) Based on the Western blotting with anti-FLAG antibody, all the deletion mutants of hORP150 were successfully expressed in Flp-In™ CHO Cells. […] To further characterize the epitope, additional mutant ORP150 proteins were generated. […]

[2] = molecular target: T2, human ORP150-3x Flag with deletion of …; experiment: anti-FLAG capture ELISA and Western blot
Protocol: as §1, §2, §3

[3] = molecular target: T3, zinc-binding alcohol dehydrogenase …; experiment: Western blot
Protocol: Western blot was performed to confirm the binding specificity of antibody 3B6.1, 6A4.28 and 9A6.2. […] The amino acid sequences of the heavy and light chain variable region of antibody 3B6.1 (IgM, K), 6A4.28 (IgM, K) and 9A6.2 (IgM, K) are shown in FIGS. 3A and 3B, 4A and 4B, and 5A and 5B, respectively.

| Binder | binding result [1] | binding result [2] | binding result [3] |
| --- | --- | --- | --- |
| B1 | no binding | no binding |  |
| B2 |  |  | no binding |
